# Measured values as given in patent publication US20240083984A1, “DOSING AND SCHEDULING REGIMEN FOR BROADLY NEUTRALIZING ANTIBODIES” (priority 2022, published 2024).
# Legend:
# [1] = Phase 1b study GS-US-536-5816: pharmacokinetics of TAB, ZAB and LEN; conditions: single dose; through Week 26
# [2] = Phase 1b study GS-US-536-5816: safety (adverse events)
# Text: Participants were monitored clinically with plasma HIV-1 RNA every four weeks until the primary endpoint at Week 26. The primary endpoint was safety; secondary endpoints included virologic outcomes by FDA Snapshot analysis.
# HIV = assay: PK-PD viral dynamic model and simulations of viral rebound during ATI; set-up: species or system human; conditions: in vivo, PK-PD model
# Procedure: Population PK and PK-PD models were developed using a nonlinear mixed-effect modeling approach based on serum bNAb concentration and/or viral dynamic data from 6 efficacy studies in people with HIV, and 3 PK studies of 3BNC117/TAB (GS-5423) and/or 10-1074/ZAB (GS-2872) (Table 4).
# bNAb concentrations were measured by ELISA assays, except for study NCT03526848 (Gaebler, et al. Nature. 2022; 606:368-374). For this study, concentrations measured by TZM-bl assay (Sarzotti-Kelsoe, et al. J Immunol Methods. 2014; 409:131-146) were transformed to ELISA data using a log-linear correlation model calibrated based on data from study NCT02825797 (Mendoza, et al. Nature. 2018; 561:479-484; Bar-On Y, et al. Nat Med. 2018; 24:1701-1707) where PK was measured using both methods. The PK data of the bNAbs were modeled by 2-compartment linear PK models. Covariates (demographics, disease status, combination treatment) were tested using stepwise forward addition (α=0.01) and backward elimination (α=0.001) methods. The PK-PD model describes viral replication using a logistic growth function and viral elimination using first-order kinetics, with a nonlinear saturable (Emax) model to describe the relationship between bNAb concentrations and viral elimination rates. […]
# [3] = in vivo, cited from earlier work
# [4] = Population PK modeling and simulation of GS-5423 and GS-2872, flat vs weight-based dosing every 6 months; set-up: species or system human
# Procedure: TAB and ZAB serum concentrations were measured using validated […]-electrochemiluminescence immunoassays. A two-compartment population PK model was developed to describe the PK data of GS-5423 and GS-2872 following IV and SC administration in HIV− and HIV+ participants. See, Joel S. Owen, Jill Fiedler-Kelly, “Introduction to Population Pharmacokinetic/Pharmacodynamic Analysis with Nonlinear Mixed Effects Models”, Wiley; 1st edition, 2014 (ISBN: 9780470582299). PopPK models of TAB and ZAB were developed using nonlinear mixed-effect modeling. Covariate analyses were performed to identify significant covariates, including body weight, effects of demographics, baseline characteristics, combination regimen, and disease status, on the PK parameters of GS-5423 and GS-2872. The population PK models were simulated to predict the PK profiles of GS-5423 and GS-2872 following IV administration of 30 or 10 mg/kg body weight normalized dosing or equivalent flat doses every 6 months. Model simulations were performed to predict the concentrations of TAB and ZAB following flat vs weight-based dosing.
compound,measurement,setting,value
CC(C)(C#Cc1ccc(-c2ccc(Cl)c3c(NS(C)(=O)=O)nn(CC(F)(F)F)c23)c([C@H](Cc2cc(F)cc(F)c2)NC(=O)Cn2nc(C(F)(F)F)c3c2C(F)(F)[C@@H]2C[C@H]32)n1)S(C)(=O)=O [lenacapavir],therapeutic concentrations,[1],maintained through Week 26
same,injection site reactions related to subcutaneous administration,"[2]; 17/20 patients, LEN 927 mg SC",85%
same,participants with grade 3 AEs,[2]; injection site cellulitis and injection site erythema at site of LEN injection,Two participants
zinlirvimab: anti-HIV gp120 V3 glycan-binding bNAb; 10-1074 with M428L and N434S (LS) Fc substitutions; heavy and light chains SEQ ID NOs: 433 and 434,estimated mean serum concentration corresponding to 50% maximum drug effect (EC50),HIV,32.2 µg/mL
same,therapeutic concentrations,[1],maintained through Week 26
same,non-solicited AEs within 4 weeks of IP administration,[3]; ip,33.7%
same,Grade 3 AE: decrease in hemoglobin,[3],1%
same,Grade 3 AE: elevated blood pressure,[3],4%
same,Grade 3 AE: increased left-sided weakness,[3],1%
same,Grade 3 AE: nephrolithiasis,[3],1%
same,Grade 3 AE: proteinuria,[3],1%
same,most common AE: localized musculoskeletal pain,[3],8%
same,most common AE: symptoms of gastroenteritis,[3],8%
same,most common AE: upper respiratory infections,[3],25%
same,non-solicited AEs of Grade 3 severity,[3],9.3%
same,non-solicited AEs of grade 2 severity,[3],11.6%
same,non-solicited AEs reported (number),[3],86
same,solicited AE: erythema/skin discoloration at the administration site,[3],8%
same,solicited AE: feverishness,[3],4%
same,solicited AE: headache,[3],4%
same,solicited AE: induration at the administration site,[3],2%
same,solicited AE: malaise/fatigue,[3],3%
same,solicited AE: myalgia,[3],1%
same,solicited AE: pain at the administration site,[3],4%
same,solicited AEs reported (number),[3],20
same,tolerability,"[2]; up to 30 mg/kg alone or in combination, GS-US-536-5816 and previous studies in HIV+ participants",well-tolerated
same,clearance in viremic PWH compared with those suppressed at baseline,[4]; PopPK covariate analysis,significant increase in the clearance
same,effect of increased body weight on PK parameters,[4]; PopPK covariate analysis in PWH,increased volume of distribution and clearance
